Reference: patent US20240216271A1, “HYDROLYTICALLY DEGRADABLE HYDROGELS AND USES THEREOF” (GEORGIA TECH RESEARCH CORPORATION, priority 2021, published 2024)

Test system: primary monocytes derived from the bone marrow of C57BL/6J mice
Assay: Bone marrow derived macrophage co-culture with microgels (flow cytometry)
Type: cell-based
Conditions: 48 hr of co-culture
From the text: To assess the effects of microgels on immune cell polarization in vitro, a co-culture system was setup involving primary monocytes derived from the bone marrow of C57BL/6J mice with different formulations of crosslinked microgels. […] In addition, the overall expression of these markers was equivalent after 4 days of co-culture (FIGS. 11A-D).
Bone Marrow Derived Macrophage Co-culture: Bone marrow was isolated from the femurs and tibias of 6-week-old male C57BL/6J mice. Bones were cleaned of soft tissue, one side was cut to expose the marrow, and they were inverted in a 200 μL pipet tip cut to fit in a 1.5 mL Eppendorf tube. The bones were then centrifuged at 10,000×g for 15 sec to pellet the marrow in the bottom of the Eppendorf tube. Bones were discarded and cells were then resuspended in RBC Lysis Buffer (Biolegend 420302) to remove red blood cells. Cells were then washed in MACS buffer (DPBS pH 7.2, 0.5% BSA, 2 mM EDTA) and monocytes were isolated using the Monocyte Isolation Kit (BM), mouse (Miltenyi Biotec 130-100-629) and LS columns (Miltenyi Biotec 130-042-401).
Monocytes were cultured in RPMI 1640 media (Gibco 11875-085) supplemented with 10% heat-inactivated fetal bovine serum, 1% pen/strep, and 20 ng/mL murine M-CSF (Biolegend 574804) for 6 days in low-adherent plates. […] Samples were analyzed on a FACS-AriaIIIu flow cytometer (BD Biosciences).

Substance: IL-4: murine IL-4, 20 ng/ml; IL-4-polarized M2 positive control
- cell viability / cell survival: increase in cell numbers
